From patent US20160178646A1, “METHODS FOR DETECTING AMYLOID BETA AMYLOIDOSIS” (Washington University, priority 2011, published 2016)

Assay: Aβ SILK tracer kinetics in CSF with compartmental model of Aβ turnover
Format: in vivo, human
Settings: for FTR faster: cognitively normal, amyloid positive group compared to cognitively normal, amyloid negative group; for FTR, Mean(95% confidence limits) / kex42 (Aβ42 exchange rate), Mean(95% confidence limits): multivariate ANOVA; for FTR (fractional turnover rate): mean ± StDev
Description: These human studies took place at the Washington University School of Medicine in St. Louis and were approved by the Washington University Human Studies Committee and the General Clinical Research Center (GCRC) Advisory Committee. All participants completed informed written consent. One hundred and one participants were enrolled for these studies comprising 57 men (aged from 60.4 to 87.7) and 44 women (aged 63.8 to 85.2). Deposition of amyloid plaques was quantified in 62 subjects based on the mean cortical binding potential (MCBP) score of [^11C]PIB-PET.^15 PET PIB scans were performed within 3 years before or after the SILK tracer study date. Cognitive status using the Clinical Dementia Rating sum of boxes score (CDR-SB16) and ApoE genotyping^33 was assessed in all subjects.
The procedure for stable isotope amino acid tracer administration and sample collection was previously described.^12 Briefly, intravenous and intrathecal lumbar catheters were placed between 7:00 AM and 9:00 AM, and the collection of samples was started between 8:00 AM and 10:00 AM. After initial CSF and plasma baseline samples were collected, each participant was infused with a bolus of 3 mg/kg L-[U-^13C6] leucine for 10 minutes, followed by a constant infusion (2 mg/kg/h) for the remainder of the first 9 hours. Blood samples (12 mL) were obtained hourly for the first 16 h and every other hour thereafter. CSF samples (6 mL) were obtained hourly throughout each study. Aliquots of plasma and CSF were frozen at −80° C. immediately in 1 mL polypropylene tubes after being collected for subsequent determination of plasma leucine and CSF Aβ isoform peptide enrichment. The sample collection for one subject was truncated at 4 hours; this subject was excluded from the analysis.
All samples were processed and measured in a blinded fashion with data results and individual analysis completed before unblinding to participant's disease state. The procedure for sample preparation, data acquisition and processing were previously described.^34 Briefly, 1 mL of CSF from each hour of collection and media standards were thawed. Aβ was purified and processed for mass spectrometry by immunoprecipitation with a mid-domain binding antibody HJ5.1 (Aβ amino acids 13 to 28). […] The purified Aβ was then digested with Lys-N (Metalloendopeptidase) and isotopic enrichment of Aβ c-terminal isoform specific peptides (Aβ29-38, Aβ29-40, and Aβ29-42) were measured using a nano-liquid chromatography (NanoLC-2D-Ultra system (Eksigent Technologies, CA USA)) coupled to a TSQ Vantage triple quadrupole mass spectrometer (ThermoScientific, San Jose USA) that was equipped with a column-heating nanospray source (Phoenix S&T, Chester Pa. USA). Xcalibur V2.1 was used to collect and quantify the mass spectrometry data for SILK. […] Samples for 100 subjects (including the prior 24 subjects) were analyzed utilizing the more specific and sensitive method34 in this study.
The time and magnitude of the peak maximum was determined by fitting a 2nd order curve to enrichment vs. time over an 11-h interval centered at the approximate peak maximum. The compartmental model previously developed and applied to Autosomal Dominant AD participants was used to determine model-dependent parameters of Aβ turnover kinetics (FIG. 18).^14 Modeling was performed using the Population Kinetics (PopKinetics, version 1.0.1) companion application to the SAAM II modeling program (version 1.2.1, SAAM Institute, University of Washington, Seattle). PopKinetics performed an iterative two-stage approach to optimize kinetic parameters to individual participants as well as the population as a whole by including a term that represents the population mean and standard deviation for each adjustable parameter such that variability of the kinetic parameters across the population is minimized. […] The model consists of a plasma leucine pool, a subsystem for production of Aβ through APP and C99, turnover of Aβ, and transport of Aβ to CSF.

| Substance | FTR faster | FTR, Mean(95% confidence limits) (CDR = 0 Amyloid+) | FTR, Mean(95% confidence limits) (CDR = 0 Amyloid−) | FTR, Mean(95% confidence limits) (CDR > 0 Amyloid+) | FTR, Mean(95% confidence limits) (CDR > 0 Amyloid−) | mean FTR (not significantly different by univariate analysis of amyloid status) | correlation between annualized change in fibrillar amyloid by PET PIB and FTR Aβ42 (R) (Amyloid positive and Amyloid negative participants) | exchange rate constant (amyloid negative participants) | FTR (fractional turnover rate) (amyloid negative participants) | exchange rate constant (amyloid positive participants) | FTR (fractional turnover rate) (amyloid positive participants) | FTR (clinically normal amyloid negative group) | FTR (clinically normal amyloid positive group) | deposition rate constant (into amyloid plaques) (difference of FTR, clinically normal amyloid positive minus negative) | increase in exchange of newly synthesized soluble Aβ42 (in amyloidosis) | kex42 (Aβ42 exchange rate), Mean(95% confidence limits) (Amyloid+) | FTR, Mean(95% confidence limits) (Amyloid+ participants, CSF SILK) | kex42 (Aβ42 exchange rate), Mean(95% confidence limits) (Amyloid−) | FTR, Mean(95% confidence limits) (Amyloid− participants, CSF SILK) |
| --- | --- | --- | --- | --- | --- | --- | --- | --- | --- | --- | --- | --- | --- | --- | --- | --- | --- | --- | --- |
| Aβ40: naturally occurring amyloid-beta isoform Aβx-40, where x is any N-terminal cleavage site; endogenous, measured as biomarker | 17% | CDR = 0 Amyloid+ 0.096(0.083-0.109) | CDR = 0 Amyloid− 0.082(0.068-0.096) | CDR > 0 Amyloid+ 0.074(0.067-0.081) | CDR > 0 Amyloid− 0.094(0.083-0.106) | 0.082±0.022 | – | – | – | – | – | – | – | – | – | – | – | – | – |
| Aβ42: naturally occurring amyloid-beta isoform Aβx-42, where x is any N-terminal cleavage site; endogenous, measured as biomarker | 57% | – | – | – | – | – | 0.56 | 0.006±0.032 pools/h | 0.094±0.031 pools/h | 0.049±0.054 pools/h | 0.112±0.035 pools/h | 0.091 pool/h | 0.143 pool/h | 0.052 pool/h | ten-fold increase | Amyloid+ 0.059(0.042-0.076) | Amyloid+ 0.124 (0.112-0.135) | Amyloid− 0.006(−0.016-0.029) | Amyloid− 0.101 (0.086-0.115) |
